Results reported in US20160058856A1.

What was measured:
[1] = target: MHC class I molecule H-2L^d on CT26 target cells (mouse) (UniProt P01897); assay: cell-based or functional assay
[2] = target: MHC class I molecule H-2K^d on CT26 target cells (mouse) (UniProt P01902); assay: cell-based or functional assay
UniProt P01902, sequence (P01902 22-368): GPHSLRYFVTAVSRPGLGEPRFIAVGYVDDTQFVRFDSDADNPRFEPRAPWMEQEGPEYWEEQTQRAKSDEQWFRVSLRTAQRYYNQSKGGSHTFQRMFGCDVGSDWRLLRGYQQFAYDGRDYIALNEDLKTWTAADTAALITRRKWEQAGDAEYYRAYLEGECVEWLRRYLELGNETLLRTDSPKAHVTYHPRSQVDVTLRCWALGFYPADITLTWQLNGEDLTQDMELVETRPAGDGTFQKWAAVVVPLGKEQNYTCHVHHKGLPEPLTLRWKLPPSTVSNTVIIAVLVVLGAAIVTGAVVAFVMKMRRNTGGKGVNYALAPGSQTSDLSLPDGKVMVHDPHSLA

UniProt P01897, sequence (P01897 25-362): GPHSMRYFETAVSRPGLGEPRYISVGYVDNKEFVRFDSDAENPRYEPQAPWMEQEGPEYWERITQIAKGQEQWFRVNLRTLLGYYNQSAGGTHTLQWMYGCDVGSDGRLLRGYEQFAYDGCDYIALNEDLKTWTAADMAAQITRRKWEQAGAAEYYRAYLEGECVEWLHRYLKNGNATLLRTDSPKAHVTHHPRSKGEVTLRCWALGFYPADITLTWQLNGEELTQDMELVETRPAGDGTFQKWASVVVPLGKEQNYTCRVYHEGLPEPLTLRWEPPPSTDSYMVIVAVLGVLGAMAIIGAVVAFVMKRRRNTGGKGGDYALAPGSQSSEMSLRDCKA

| Substance | CTL activity (CFSE-based cytotoxicity assay, CT26 target cells pre-incubated with blocking antibodies) (fraction of the control values) [1] | CTL activity (CFSE-based cytotoxicity assay, CT26 target cells pre-incubated with blocking antibodies) (fraction of the control values) [2] |
| --- | --- | --- |
| anti-MHC class I monoclonal antibody H-2L^d: 28-14-8 (BioLegend) | 0.33 |  |
| anti-MHC class I monoclonal antibody H-2K^d: SF1-1.1.1 (eBioScience) |  | 0.33 |
